Measured values from US9994616B2, “c-Met protein agonist” (The University of Tokyo, priority 2013, dated 2018).
Bridges are numbered along the chain shown (N, C = ends). Roman numbers before positions name the chains, in order. Where no end group is shown, it is not given here. [ ]: non-standard residue; d: D form. fluorescein = fluorescein fluorescent label attached to the peptide; βAla = NCCC(=O)O

Legend:
[1] = test system: human HuCCT1 cells; experiment: Cell migration of HuCCT1 cells on pore-containing plate; type: cell-based; conditions: Table 13
Protocol: In addition, human HuCCT1 cells were seeded on a pore-containing plate and cultured in a medium mixed with each of the dimeric peptides to evaluate activation of cell migration ability.

[2] = molecular target: c-Met-Fc (Homo sapiens, UniProt P08581); experiment: Binding ability by surface plasmon resonance (SPR, Biacore); conditions: Table 11, monomer and dimeric peptides
Chain of c-Met-Fc (P08581 with tags, fused parts or gaps limits assumed): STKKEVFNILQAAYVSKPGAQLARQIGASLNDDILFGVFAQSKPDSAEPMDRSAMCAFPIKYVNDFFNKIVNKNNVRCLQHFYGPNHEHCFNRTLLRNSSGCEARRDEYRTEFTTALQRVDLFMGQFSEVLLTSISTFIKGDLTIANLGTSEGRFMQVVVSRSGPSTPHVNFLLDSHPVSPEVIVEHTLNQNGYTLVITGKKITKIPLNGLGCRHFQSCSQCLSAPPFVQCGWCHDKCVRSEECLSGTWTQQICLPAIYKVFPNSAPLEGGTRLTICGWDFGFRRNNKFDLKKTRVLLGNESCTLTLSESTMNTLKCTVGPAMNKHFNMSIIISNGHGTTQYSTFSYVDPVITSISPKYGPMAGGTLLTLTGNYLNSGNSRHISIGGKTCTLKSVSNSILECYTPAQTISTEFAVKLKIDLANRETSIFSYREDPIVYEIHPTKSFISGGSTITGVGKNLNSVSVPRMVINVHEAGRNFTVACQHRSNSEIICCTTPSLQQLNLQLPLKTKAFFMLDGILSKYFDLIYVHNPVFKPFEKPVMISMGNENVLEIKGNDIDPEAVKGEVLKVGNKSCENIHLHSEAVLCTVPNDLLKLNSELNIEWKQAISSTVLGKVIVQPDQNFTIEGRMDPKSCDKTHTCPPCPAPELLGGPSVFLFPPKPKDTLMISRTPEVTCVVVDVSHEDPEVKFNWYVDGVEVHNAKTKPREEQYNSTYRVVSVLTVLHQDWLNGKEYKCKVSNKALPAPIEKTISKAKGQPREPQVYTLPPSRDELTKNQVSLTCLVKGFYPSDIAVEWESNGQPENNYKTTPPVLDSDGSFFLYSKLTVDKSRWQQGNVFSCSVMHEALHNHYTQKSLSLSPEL
Chain of c-Met-Fc (P08581 25-307 limits assumed): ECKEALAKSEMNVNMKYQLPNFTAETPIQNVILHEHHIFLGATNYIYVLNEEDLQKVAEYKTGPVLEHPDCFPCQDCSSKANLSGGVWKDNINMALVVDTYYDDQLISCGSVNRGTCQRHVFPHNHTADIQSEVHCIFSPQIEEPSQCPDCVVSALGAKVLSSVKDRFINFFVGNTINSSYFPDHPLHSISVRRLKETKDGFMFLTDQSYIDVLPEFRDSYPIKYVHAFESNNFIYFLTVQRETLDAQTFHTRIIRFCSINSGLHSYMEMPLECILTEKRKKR
Protocol: Binding ability of the thioether macrocyclic peptide was evaluated by SPR measurement using Biacore (GE Healthcare).
As a sensor chip, Sensor Chip CM5 was used and an anti-IgG antibody was immobilized on a measurement lane and a control lane by using Human Antibody Capture Kit.
On the measurement lane was immobilized c-Met-Fc, while on the control lane was immobilized Fc protein.
As a running buffer, HBS-EP+ buffer containing 0.1% DMSO was used and a dissociation constant of the thioether macrocyclic peptide was calculated at 5 different concentrations by using the single-kinetics method.

[3] = molecular target: T1, c-Met (Homo sapiens, UniProt P08581); experiment: Activity of dimeric peptide by ELISA (c-Met phosphorylation level in EHMES-1 cells); type: cell-based; conditions: for Activity (c-Met phosphorylation level by ELISA): Table 12, EHMES-1 cells, 10 minutes stimulation; for c-Met phosphorylation: Table 13
T1 construct: endogenous in cells; host or cells: EHMES-1 (human mesothelioma)
T1 sequence (P08581 25-1390): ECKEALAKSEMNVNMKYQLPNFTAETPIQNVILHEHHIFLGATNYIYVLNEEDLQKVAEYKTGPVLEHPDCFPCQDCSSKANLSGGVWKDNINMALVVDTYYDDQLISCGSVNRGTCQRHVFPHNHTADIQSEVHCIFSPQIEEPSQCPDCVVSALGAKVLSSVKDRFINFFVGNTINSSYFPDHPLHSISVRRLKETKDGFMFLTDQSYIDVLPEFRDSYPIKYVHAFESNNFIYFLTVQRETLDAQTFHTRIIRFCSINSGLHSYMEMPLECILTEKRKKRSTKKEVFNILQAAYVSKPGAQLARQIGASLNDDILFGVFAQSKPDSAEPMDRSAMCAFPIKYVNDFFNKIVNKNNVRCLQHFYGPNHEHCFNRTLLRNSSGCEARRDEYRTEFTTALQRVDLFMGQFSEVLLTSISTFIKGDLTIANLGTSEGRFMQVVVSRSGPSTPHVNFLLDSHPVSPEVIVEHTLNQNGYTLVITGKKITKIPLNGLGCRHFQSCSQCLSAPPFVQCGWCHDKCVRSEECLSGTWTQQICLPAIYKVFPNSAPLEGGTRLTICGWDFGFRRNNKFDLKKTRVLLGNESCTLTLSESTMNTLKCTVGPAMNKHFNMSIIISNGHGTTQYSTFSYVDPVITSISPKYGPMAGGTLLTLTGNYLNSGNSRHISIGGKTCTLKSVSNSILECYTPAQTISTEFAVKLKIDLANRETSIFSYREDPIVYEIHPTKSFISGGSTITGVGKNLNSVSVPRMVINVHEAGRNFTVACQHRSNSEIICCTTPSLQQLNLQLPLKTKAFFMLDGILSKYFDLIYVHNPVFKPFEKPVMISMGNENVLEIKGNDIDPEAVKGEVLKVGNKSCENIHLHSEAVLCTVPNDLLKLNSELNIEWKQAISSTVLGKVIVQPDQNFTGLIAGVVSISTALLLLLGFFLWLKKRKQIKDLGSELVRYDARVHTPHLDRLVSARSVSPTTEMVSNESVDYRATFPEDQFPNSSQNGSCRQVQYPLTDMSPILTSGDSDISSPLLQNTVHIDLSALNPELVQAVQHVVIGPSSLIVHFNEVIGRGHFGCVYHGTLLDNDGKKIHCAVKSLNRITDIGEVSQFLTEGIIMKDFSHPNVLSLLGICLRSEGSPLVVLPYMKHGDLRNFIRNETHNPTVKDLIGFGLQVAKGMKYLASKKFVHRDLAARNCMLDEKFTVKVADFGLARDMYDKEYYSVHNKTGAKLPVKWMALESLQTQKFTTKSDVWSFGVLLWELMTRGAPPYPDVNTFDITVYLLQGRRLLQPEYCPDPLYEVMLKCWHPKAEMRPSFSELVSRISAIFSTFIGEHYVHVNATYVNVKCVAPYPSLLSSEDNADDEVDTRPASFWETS
Protocol: Each dimeric peptide was added to human EHMES-1 cells and the mixture was incubated for 10 minutes to stimulate the cells.
As a control experiment, a recombinant human HGF protein was added and the mixture was incubated for 10 minutes to stimulate cells.
A phosphorylation level of c-Met was quantitatively analyzed using ELISA.

[4] = test system: human c-Met expressing cells (human SNU-638 cells); experiment: Localization of fluorescein-modified peptides on c-Met expressing cells (confocal microscopy); type: cell-based; conditions: 1 μM fluorescein peptide, FIG. 2A
Protocol: To human c-Met expressing cells (human SNU-638 cells) or human c-Met non-expressing cells (human SNU-216 cells) cultured on a glass-bottom dish were added a RPMI1640 medium containing 1 mg/L of Hoechst 33342, a nuclear staining reagent, an anti-human c-Met antibody, and 1 uM of L5-2-fluorescein, D4-3-fluorescein, D5-4-fluorescein, D4-3NMe-fluorescein, or D4-3scr-fluorescein and the resulting mixture was incubated in 5% CO2 at 37° C. for 5 minutes. Then, a RPMI1640 medium containing an HRP-anti-rat secondary antibody and 1 μM of L5-2-fluorescein, D4-3-fluorescein, D5-4-fluorescein, D4-3NMe-fluorescein, or D4-3scr-fluorescein was added and the resulting mixture was incubated in 5% CO2 at 37° C. for 5 minutes.
The cells were washed three times with a D-MEM medium and were microscopically observed in a new RPMI1640 medium. The localization of the peptide was observed using a confocal fluorescence microscope for the microscopic observation.

[5] = test system: human Hcc-827 cells; experiment: Cell growth of Iressa-inhibited Hcc-827 cells (MTS assay); type: cell-based; conditions: Table 13, Hcc-827 cells inhibited by Iressa
Protocol: Dimeric peptides were added to human Hcc-827 cells whose cell growth was inhibited by the addition of Iressa and the resulting mixture was cultured to activate the cell growth ability via a c-Met signaling pathway. The cell count of the thus-cultured cells was quantitatively determined by the assay using MTS (3-(4,5-dimethylthiazol-2-yl)-5-(3carboxymethoxyphenyl)-2-(4-sulphophenyl)-2H-tetrazolium, inner salt).

[6] = molecular target: T1, c-Met; experiment: Activity of dimeric peptide by Phospho-RTK array in EHMES-1 cells; type: cell-based; conditions: optimum concentration, 10 minutes, FIG. 4
Protocol: (§1) The optimum concentration of each dimeric peptide was added to cultured EHMES-1 cells derived from human mesothelioma and the resulting mixture was incubated for 10 minutes to stimulate the cells. As a control experiment, 2 nM recombinant human HGF protein was added, followed by incubation for 10 minutes.
The resulting cells were lyzed and the lysate thus obtained was analyzed using Phospho-RTK array (R&D Systems) to evaluate whether or not the c-Met of the cells was phosphorylated.

[7] = test system: c-Met, Gab1, Akt, and Erk proteins; experiment: Activity of dimeric peptide by western blotting in EHMES-1 cells; type: cell-based, human; conditions: 10 minutes, FIG. 5
Protocol: as §1, with “each of the” for “each”, “peptides” for “peptide”, “nM of a” for “nM”
The cells were lysed and the resulting lysate was electrophoresed using a 10% modified polyacrylamide gel. After transcription of the protein thus separated to an Immobilon-P PVDF membrane (Millipore) and blocking with PVDF Blocking Reagent for Can Get Signal (TOYOBO), a primary antibody reaction of it was performed overnight at 4° C. in Can Get Signal Solution 1 (TOYOBO). As the antibody, anti-Met (Millipore, EP1454Y), anti-Phospho-Met Tyr1234/1235 (Cell Signaling Technology, D26), anti-Phospho-Met Tyr1349 (Millipore, 07-808), anti-Akt (Cell Signaling Technology, 11E7), anti-Phospho-Akt Thr308 (Cell Signaling Technology, D25E6), anti-Erk1/2 (Cell Signaling Technology, 137F5), anti-Phospho-Erk1/2 Thr202/Tyr204 (Cell Signaling Technology, D13.14.4E), anti-Gab1 (Cell Signaling Technology), or anti-Phospho-Gab1 Tyr 627 (Cell Signaling Technology, C32H2) was used. Then, a secondary antibody reaction was performed at room temperature for one hour in Can Get Signal Solution 2 (TOYOBO) by using an anti-rabbit antibody HRP conjugate. […]

## D4-3 Bis-MAL-PEG11: dimeric peptide: two D4-3 macrocycles linked through C-terminal Cys by Bis-MAL-PEG11 linker ({CH2CO}-[dY]RQFNRRTHEVWNLDCGC; thioether N-16; not fully specified (residue 18); also: dimer: two copies joined by Bis-MAL-PEG11, linker at 18 via Bis-MAL-PEG11, other end not in the chain)
[1]
  Cell migration: Activate
[2]
  ka: 1.2 10^6 M^−1s^−1
  kd: 0.11 10^−2 s^−1
[3]
  Activity (c-Met phosphorylation level by ELISA): High
  c-Met phosphorylation: Promote

## D4-3NMe-fluorescein: Fluorescein-modified N-methylated D4-3 peptide ({CH2CO}-[dY]RQFNRRTHEVWNLDCGK(fluorescein); thioether N-16; also: two amino acids N-methylated (N6 + N16))
[4]
  Binding to c-Met expressing cells: colocalized with and bind to

## L5-2 Bis-MAL-PEG3: dimeric peptide: two L5-2 macrocycles linked through C-terminal Cys by Bis-MAL-PEG3 linker ({CH2CO}-YISWNEFNSPNWRFITCG[βAla]C-NH2; thioether N-17; not fully specified (residue 20); also: dimer: two copies joined by Bis-MAL-PEG3, linker at 20 via Bis-MAL-PEG3, other end not in the chain)
[1]
  Cell migration: Activate
[2]
  ka: 0.22 10^6 M^−1s^−1
  kd: 0.042 10^−2 s^−1
[3]
  Activity (c-Met phosphorylation level by ELISA): High
  c-Met phosphorylation: Promote

## D4-3 BMH: dimeric peptide: two D4-3 macrocycles linked through C-terminal Cys by BMH linker ({CH2CO}-[dY]RQFNRRTHEVWNLDCGC; thioether N-16; not fully specified (residue 18); also: dimer: two copies joined by BMH, linker at 18 via BMH, other end not in the chain)
[2]
  ka: 2.0 10^6 M^−1s^−1
  kd: 0.091 10^−2 s^−1
[5]
  Cell growth: Activate
[3]
  Activity (c-Met phosphorylation level by ELISA): Low
  c-Met phosphorylation: Promote

## D5-4 BMH: dimeric peptide: two D5-4 macrocycles linked through C-terminal Cys by BMH linker (peptide 1 {CH2CO}-[dY]WYYAWDQTYKAFPCG; peptide 2 {CH2CO}-[dY]WYYAWDQTYKAFPCG; thioether I:N-I:15, II:N-II:15; not fully specified (C-terminus); also: dimer: two chains joined by BMH through an added C-terminal Cys not in the letters)
[2]
  ka: 0.046 10^6 M^−1s^−1
  kd: 0.055 10^−2 s^−1
[5]
  Cell growth: Activate
[3]
  Activity (c-Met phosphorylation level by ELISA): High
  c-Met phosphorylation: Promote

## D4-3-fluorescein: Fluorescein-modified D4-3 peptide, fluorescein on the side chain of C-terminal lysine ({CH2CO}-[dY]RQFNRRTHEVWNLDCGK(fluorescein); thioether N-16)
[4]
  Binding to c-Met expressing cells: colocalized with and bind to

## L5-2 BMH: dimeric peptide: two L5-2 macrocycles linked through C-terminal Cys by BMH linker ({CH2CO}-YISWNEFNSPNWRFITCG[βAla]C-NH2; thioether N-17; not fully specified (residue 20); also: dimer: two copies joined by BMH, linker at 20 via BMH, other end not in the chain)
[2]
  ka: 0.083 10^6 M^−1s^−1
  kd: 0.054 10^−2 s^−1
[5]
  Cell growth: Activate
[3]
  Activity (c-Met phosphorylation level by ELISA): Low
  c-Met phosphorylation: Promote

## D4-3scr-fluorescein: Fluorescein-modified c-Met-unbinding peptide ({CH2CO}-YERVNHLFRNQTWDRCGK(fluorescein); thioether N-16 (inferred)) [reference compound]
[4]
  Binding to c-Met expressing cells: does not bind

## HGF: recombinant human HGF protein, natural ligand of c-Met, control
[6]
  Autophosphorylation of c-Met (Phospho-RTK array): autophosphorylation is induced
[7]
  Phosphorylation of c-Met, Gab1, Akt, and Erk proteins (western blotting): promote phosphorylation

## D4-3scr BMH: dimer of the negative control peptide D4-3scr with BMH linker ({CH2CO}-YERVNHLFRNQTWDRCGC; thioether N-16 (inferred); also: dimer of D4-3scr with BMH linker) [reference compound]
[1]
  Cell migration: Not activate
[2]
  KD: Not binding
[3]
  Activity (c-Met phosphorylation level by ELISA): No
  c-Met phosphorylation: Not promote

## D5-4 Bis-MAL-PEG11: dimeric peptide: two D5-4 macrocycles linked through C-terminal Cys by Bis-MAL-PEG11 linker (peptide 1 {CH2CO}-[dY]WYYAWDQTYKAFPCG; peptide 2 {CH2CO}-[dY]WYYAWDQTYKAFPCG; thioether I:N-I:15, II:N-II:15; not fully specified (C-terminus); also: dimer: two chains joined by Bis-MAL-PEG11 through an added C-terminal Cys not in the letters)
[1]
  Cell migration: Activate
[2]
  ka: 5.3 10^6 M^−1s^−1
  kd: 1.1 10^−2 s^−1
[3]
  Activity (c-Met phosphorylation level by ELISA): High
  c-Met phosphorylation: Promote
